Where a chain is given by its changes, count along the chain named. In names and notes the source's numbering stands. Blank lines part the entries; values can stand above or below the binder they belong to.
Assays:
TAL ALκ liver extract [1] = biological target: T1, TAL ALκ liver extract; experiment: plate assay, time-resolved fluorescence (anti-human Fc, streptavidin-europium), 4PL fit
T1 construct: Human AL amyloid extract; also called ALκ (TAL); ALκ TAL
Procedure: (§1) The antibody-peptide conjugate was added to the wells in 2-fold serial dilution starting at 100 nM. For wells containing rVλ6WIL, the antibody-peptide conjugate was added to the wells in 2-fold serial dilution starting at 5 nM.

rVλ6Wil fibrils [2] = biological target: T2, rVλ6Wil fibrils; experiment: as above
T2 construct: domain: λ6 variable domain; Synthetic amyloid-like fibrils; also called rVλWIL; rVλ6Wil synthetic fibrils
Procedure: as §1

KEN hATTR extract [3] = biological target: T3, KEN hATTR extract (human, UniProt P02766 21-147); experiment: as above
Procedure: as §1

Per125 wtATTR extract [4] = biological target: T4, Per125 wtATTR extract (human, UniProt P02766 21-147); experiment: as above
Procedure: as §1

[5] = biological target: T5, ALλ (GRA) amyloid extract; experiment: as above
T5 construct: also called ALκ(GRA) amyloid extract
Procedure: as §1

[6] = biological target: T6, ALλ (BAL) amyloid extract; experiment: as above
T6 construct: Human AL amyloid extract; also called human AL (BAL) amyloid extract
Procedure: as §1

SHI ALλ liver extract [7] = biological target: T7, SHI ALλ liver extract; experiment: as above
T7 construct: Human AL amyloid extract; also called ALλ (SHI); ALλ SHI extract
Procedure: as §1

[8] = biological target: α-synuclein synthetic amyloid-like fibrils (UniProt P37840 1-140); experiment: as above
Procedure: (§2) The mean and standard deviation (SD) of three replicates were calculated and the potency (EC50) was determined following fitting with a sigmoidal four parameter logistic (4PL) equation with logarithmic x-axis (Prism) (FIG. 14). A non-reactive hIgG1 was used as a negative control in a parallel assay (FIG. 13B).

[9] = biological target: Tau 441 synthetic amyloid-like fibrils (UniProt P10636-8 1-441); experiment: as above
Procedure: as §2

TAL ALκ liver extract [10] = biological target: T1, TAL ALκ liver extract; experiment: pulldown assay
HIG ALκ1 extract = biological target: T8, HIG ALκ1 extract; experiment: pulldown assay
T8 construct: Human AL amyloid extract; also called ALκ HIG extract

rVλ6Wil fibrils [11] = biological target: T2, rVλ6Wil fibrils; experiment: pulldown assay
SNO hATTR extract = SNO hATTR extract (human, UniProt P02766 21-147); experiment: pulldown assay
KEN hATTR extract [12] = biological target: T3, KEN hATTR extract; experiment: pulldown assay
Per125 wtATTR extract [13] = biological target: T4, Per125 wtATTR extract; experiment: pulldown assay
TYL ALλ extract = biological target: T9, TYL ALλ extract; experiment: pulldown assay
T9 construct: Human AL amyloid extract; also called ALλ TYL extract

CAB ALκ4 = biological target: T10, CAB ALκ4; experiment: pulldown assay
T10 construct: AL amyloid substrate of the pulldown assay

[14] = biological target: Per253 wild type (wt) ATTR extract (human, UniProt P02766 21-147); experiment: pulldown assay
SHI ALλ liver extract [15] = biological target: T7, SHI ALλ liver extract; experiment: pulldown assay
rVλ6Wil fibrils [16] = biological target: T2, rVλ6Wil fibrils; experiment: EuLISA on rVλ6Wil fibrils (FIG. 5A)
rVλ6Wil fibrils [17] = biological target: T2, rVλ6Wil fibrils; experiment: EuLISA on rVλ6Wil fibrils; plot with two y axes
[18] = biological target: T11, Len(1-22) monomer peptide (Homo sapiens (Human), UniProt P06312 21-42); experiment: SPR, antibody as ligand, peptide as analyte
T11 construct: Analyte in SPR; on beads in the pulldown assay; also called Vκ4(LEN(1-22) beads)
T11 peptide: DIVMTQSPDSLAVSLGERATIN

rVλ6Wil fibrils [19] = biological target: T2, rVλ6Wil fibrils; experiment: EuLISA on rVλ6Wil fibrils (FIG. 5B)
TAL ALκ liver extract [20] = biological target: T1, TAL ALκ liver extract; experiment: EuLISA
rVλ6Wil fibrils [21] = biological target: T2, rVλ6Wil fibrils; experiment: EuLISA
Per125 wtATTR extract [22] = biological target: T4, Per125 wtATTR extract; experiment: EuLISA
SHI ALλ liver extract [23] = biological target: T7, SHI ALλ liver extract; experiment: EuLISA

Tau 441 synthetic amyloid-like fibrils, sequence (P10636 other isoform, or with tags, fused parts or gaps limits assumed): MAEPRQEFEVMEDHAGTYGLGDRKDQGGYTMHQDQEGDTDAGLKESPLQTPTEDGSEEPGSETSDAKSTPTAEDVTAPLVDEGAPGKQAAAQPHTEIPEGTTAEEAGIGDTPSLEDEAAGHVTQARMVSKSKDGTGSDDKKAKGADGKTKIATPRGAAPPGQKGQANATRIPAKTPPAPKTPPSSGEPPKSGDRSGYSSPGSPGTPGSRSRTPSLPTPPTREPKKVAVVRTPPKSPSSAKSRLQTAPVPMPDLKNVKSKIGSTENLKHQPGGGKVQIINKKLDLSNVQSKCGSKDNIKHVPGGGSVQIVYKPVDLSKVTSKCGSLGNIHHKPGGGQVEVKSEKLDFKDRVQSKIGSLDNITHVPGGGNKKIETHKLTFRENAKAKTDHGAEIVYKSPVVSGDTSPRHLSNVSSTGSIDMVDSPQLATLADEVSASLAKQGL

- percent bound (TAL ALκ liver extract [10]): 0.72%
- percent bound (HIG ALκ1 extract): 0.19%
- percent bound (rVλ6Wil fibrils [11]): 10.4%
- percent bound (SNO hATTR extract): 0.41%
- percent bound (KEN hATTR extract [12]): 0.61%
- percent bound (Per125 wtATTR extract [13]): 1.36%
- percent bound (TYL ALλ extract): 0.56%
- percent bound (CAB ALκ4): 2.43%
- percent bound [14]: 0.8%
- percent bound (SHI ALλ liver extract [15]): 0.68%
- EC50 (rVλ6Wil fibrils [16]): 7 nM
- EC50 (read off the curve) (rVλ6Wil fibrils [17]): ~7 nM
- Kd [18]: 43 nM
- koff [18]: 0.0026 s⁻¹
- kon [18]: 60400 M⁻¹ s⁻¹
B3: VH9/VL4 (antibody, V domains shown)
VH: QVQLQESGPGLVKPSETLSLTCTVSGFSLSSYGVSWIRQPPGKGLEWLGVIWGDGSTNYHPNLMSRVTISVDTSKSQVLFKLSSVTAADTAVYYCATLDYWGQGTSVTVSS
VL: DVVMTQSPLSLPVTLGQPASISCRSSQSLVHRNGNTYLHWFQQRPGQSPRLLIYKVSNRFSGVPDRFSGSGSGTDFTLKISRVEAEDVGVYFCFQTTYVPNTFGGGTKLEIK
notes: Humanized 11-1F4; also called VH9/VL4 parent

- EC50 (rVλ6Wil fibrils [16]): ~72 nM
- EC50 (rVλ6Wil fibrils [19]): ~100 nM
- LogEC50 (TAL ALκ liver extract [20]): ~0.599 -log(M)
- Max (TAL ALκ liver extract [20]): ~17800
- EC50 (rVλ6Wil fibrils [21]): 291 nM
- LogEC50 (rVλ6Wil fibrils [21]): 6.54 -log(M)
- Max (rVλ6Wil fibrils [21]): 63.9
- EC50 (Per125 wtATTR extract [22]): 381 nM
- LogEC50 (Per125 wtATTR extract [22]): 6.42 -log(M)
- Max (Per125 wtATTR extract [22]): 71.1
- EC50 (SHI ALλ liver extract [23]): 256 nM
- LogEC50 (SHI ALλ liver extract [23]): 6.59 -log(M)
- Max (SHI ALλ liver extract [23]): 51.3
B4: chimeric antibody c11-1F4 (antibody, V domains shown)
VH: QVQLKESGPGLVAPSQSLSITCTVSGFSLSSYGVSWVRQPPGKGLEWLGVIWGDGSTNYHPNLMSRLSISKDISKSQVLFKLNSLQTDDTATYYCVTLDYWGQGTSVTVSS
VL: B3 VL with S7T, T14S, Q17D, P18Q, F41Y, Q42L, R44K, R50K, V88L, V90L
notes: Chimeric form of 11-1F4; also called ch11-1F4; chimeric (c) 11-1F4

Continued, binder first:

B1: PF.1 (VH9-D54E/VL4-N33S-p5R with VSPSV spacer, perfusion 1) (antibody, human IgG1, kappa)
heavy: not shown
light: DVVMTQSPLSLPVTLGQPASISCRSSQSLVHRSGNTYLHWFQQRPGQSPRLLIYKVSNRFSGVPDRFSGSGSGTDFTLKISRVEAEDVGVYFCFQTTYVPNTFGGGTKLEIKRTVAAPSVFIFPPSDEQLKSGTASVVCLLNNFYPREAKVQWKVDNALQSGNSQESVTEQDSKDSTYSLSSTLTLSKADYEKHKVYACEVTHQGLSSPVTKSFNRGECVSPSVRAQRAQARQARQAQRAQRAQARQARQ
notes: Antibody-peptide fusion, p5R on the light chain through VSPSV; perfusion culture 1 day, cation exchange, over 99% intact; also called VH9-D54E/VL4-N33S-VSPSV-p5R
- EC50 (TAL ALκ liver extract [1]): 0.4 nM
- EC50 (rVλ6Wil fibrils [2]): 0.15 nM
- EC50 (KEN hATTR extract [3]): 0.45 nM
- EC50 (Per125 wtATTR extract [4]): 0.18 nM
- EC50 [5]: 0.6 nM
- EC50 [6]: 0.36 nM
- EC50 (SHI ALλ liver extract [7]): 0.32 nM

B2: PF.7 (VH9-D54E/VL4-N33S-VSPSV-p5R collected after 7 days of perfusion culturing) (antibody, human IgG1, kappa)
heavy: not shown
light: B1 light
notes: Same construct as PF.1, perfusion culture for 7 days
- EC50 [8]: 127 nM
- EC50 [9]: 1300 nM

From patent US20230416347A1 (UNIVERSITY OF TENNESSEE RESEARCH FOUNDATION, published 2023)
